Experiment [1] can be described thus: T. maritima C277S/C277T constructs, peracetic acid in solution (Example 11). In kind it is biochemical. The following applies: 0.5 μM enzyme, 100 mM triacetin, 100 mM H2O2, pH 7.2, 10 min, 37° C.; no enzyme 114. The procedure:
(§1) The detection of peracetic acid followed the method described in Pinkernell et. al. (Analyst, 1997, 122, 567) using colorimetric detection of 2,2′-azino-bis(3-ethylbenzothiazoline(-6-sulfonate (ABTS) oxidation by peracetic acid. Following the formation of peracetic acid with the addition of triacetin and hydrogen peroxide, 90 μL of solution was added to 10 μL of 0.1 M H3PO4 in a well plate. 50 μL of 1 M acetic acid, 50 μL of 0.5 g/L ABTS and 50 μL of 0.002 g/L of KI was added. The solution was allowed to develop for 5 min. The absorbance of the solution was measured at 405 nm using a microplate reader. The peracetic acid concentration was calculated based on a standard curve developed simultaneously using peracetic acid reagent solution.
Perhydrolase enzymes listed in Table 5 were assessed for enzyme activity in solution as described in Example 7. The enzyme activity in solution was measured by making a 500 μl solution of 0.5 μM of each enzyme in 100 mM triacetin, 100 mM H2O2 and 10 mM phosphate buffer, pH 7.2. The solution was incubated for 10 min, at 37° C. After the reaction was stopped by mixing an aliquot with H3PO4, a 10 μL aliquot was removed for proper dilution, and then detected via ABTS oxidation as described in Example 7.

Experiment [2] in a line: Retention of perhydrolase on hydroxyapatite (SDS-PAGE band strength). In kind it is binding. The following applies: relative to enzyme input = 1; for Unbound (relative band strength): 10 μM enzyme, 0.5% hydroxyapatite, pH 7.2; for HAP Particles (relative band strength): enzyme retained on particles after washes. The method, then:
Perhydrolase enzymes listed in Table 6 were assessed for binding to hydroxyapatite. A dispersion of hydroxyapatite nanoparticles (Aldrich 677418) was made at 0.5% solids in 10 mM phosphate buffer at pH 7.2. Enzyme stock solution was added to the hydroxyapatite dispersion to a final concentration of 10 μM and incubated for 30 min in a microcentrifuge tube with gentle agitation. Each sample was centrifuged for 5 min at 10000 rpm. The supernatant was removed and additional buffer was added. The particles were resuspended and transferred to a new tube. The process was repeated two additional times. Samples of the original input of enzyme, the supernatant removed from the particles with each wash step and the final particles were prepared for SDS-PAGE analysis by combining 60 μL of sample, 20 μL of LDS buffer and 8 μL of reducing agent (Nu-PAGE). Samples were heated at 85° C. for 10 min. 25 μL of each sample was loaded on a 4-12% BisTris gel (Invitrogen) and run at 115 volts for 1.5 h. The gel was removed and stained with a 1:1 dilution of Simply Blue stain (Invitrogen) overnight and destained for 4 h in deionized water. The gel was analyzed and detection of enzyme in each fraction was estimated based on the presence of a band. The results of the analysis are provided in Table 7 with an indication of the relative strength of each band in the gel compared to the enzyme input (input=1) to determine the strength of binding between the hydroxyapatite surface and each enzyme.

The nature of experiment [3]: Perhydrolase activity in solution, ABTS detection of peracetic acid (Example 7). In kind it is biochemical. The following applies: 10 μL of 0.625 μg/mL enzyme, triacetin, H2O2, pH 7.2, 5 min. The method, then: as §1
The enzyme activity in solution was measured by making a solution of 0.625 μg/mL of each enzyme in 50 mM phosphate buffer, pH 7.2. 10 μL of enzyme solution was mixed with 90 μL buffer, 30 μL of 3% triacetin in water, 30 μL of 30 mM H2O2. The solution was incubated for 5 min. A 90 μL aliquot was removed for detection via ABTS oxidation as noted above.

Experiment [4] in a line: Two-step bleaching of coffee-tea stained bovine enamel (Example 16). The following applies: for Whiteness Index 0 min: two-step: 10 μM enzyme 60 min, rinsed, then 40 mM triacetin, 100 mM H2O2, pH 7.2, before step 2; for ΔWI / Whiteness Index 5 min / Whiteness Index 15 min / Whiteness Index 30 min / Whiteness Index 45 min / Whiteness Index 60 min: two-step; for ΔWI: 0 to 60 min; for Whiteness Index 5 min: 5 min in triacetin/H2O2; for Whiteness Index 15 min: 15 min in triacetin/H2O2; for Whiteness Index 30 min: 30 min in triacetin/H2O2; for Whiteness Index 45 min: 45 min in triacetin/H2O2; for Whiteness Index 60 min: 60 min in triacetin/H2O2. The procedure:
Bovine enamel incisors were prepared as indicated in Example 1. The stained enamel blocks were embedded in a 48 well plate to protect the dentin backside from solution exposure. A solution of 10 μM of each enzyme in 10 mM phosphate buffer, pH 7.2 was prepared and 500 μL of solution was incubated with each enamel substrate for 60 min. The enzyme solution was removed and each well was rinsed three times with an additional 500 μL of buffer. The enamel blocks were placed in a fresh well for the whitening process. A solution with a final concentration of 40 mM triacetin, 100 mM H2O2 in 50 mM phosphate pH 7.2 buffer was freshly prepared and 500 μL of solution was added to each enamel block. Over the course of 1 hr the enamel blocks were removed and a color measurement was obtained and then each was returned to the solution in the well plate. The whiteness index for each sample was monitored.

Experiment [5] in a line: T. maritima C277S/C277T constructs, peracetic acid when bound to bovine enamel (Example 11). In kind it is biochemical. The following applies: bovine enamel exposed to 10 μM enzyme, 4 washes; 100 mM triacetin, 100 mM H2O2, 30 min, 37° C.; no enzyme 570. The procedure: as §1
The perhydrolase enzymes were also assessed for binding to bovine enamel substrates. Enamel substrates were prepared as described in Example 2 and 3. Each enamel block was hydrated in water for overnight at room temperature (˜22° C.). The enamel blocks were then equilibrated with 10 mM potassium phosphate buffer, pH7.2, for 10 min. The enamel substrates were rinsed 3 times the buffer. The enamel wells were filled with 500 μL of 10 μM enzyme solutions which was prepared by diluting in 10 mM phosphate buffer. The samples were incubated for 30 min with slow shaking at 37° C. The non-binding enzyme was removed by washing 4 times with phosphate buffer. Then, each enamel block was embedded inside a putty filled 24-well plate, with only the enamel top surface exposed. The perhydrolase activity from enamel bound enzyme was measured as described in Example 8. 100 μL reaction mixtures (100 mM phosphate buffer, pH7.2 and 100 mM H2O2 and 100 mM triacetin) was added on top of the enamel and incubated for 30 min at 37° C. A 90 μL aliquot was removed for detection via ABTS oxidation as noted in Example 8. Each sample data point represents an average of 3 independent enamel blocks.

Experiment [6] in a line: Peracetic acid generation from hydroxyapatite bound CE-7 perhydrolase fusions (Example 8). In kind it is biochemical. Particulars: hydroxyapatite particles exposed to 10 μM enzyme, washed; 100 mM triacetin, 100 mM H2O2, 30 min, 37° C.; no enzyme 30-118.8. A digest of the protocol: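 Enzyme (10 μM) bound to washed hydroxyapatite particles in 10 mM phosphate pH 7.2 for 30 min, washed three times, then given 100 mM triacetin plus 100 mM H2O2 in 100 mM phosphate pH 7.2, 30 min, 37 °C. Peracetic acid read by ABTS oxidation at 405 nm against standard curve; no-enzyme control.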

A short description of experiment [7]: Perhydrolase activity of enzyme bound to hydroxyapatite discs, ABTS (Example 7). In kind it is biochemical. The method, then: as §1
The perhydrolase activity of the fusions once bound to HAP discs surfaces was determined with the same ABTS method. Hydroxyapatite discs (HiMed Inc, Old Bethpage, N.Y.; 5 mm dia.×1.8 mm thick) were incubated in 20 μM enzyme solution (50 mM potassium phosphate buffer pH 7.2) for 60 min followed by 6 times of washes (50 mM potassium phosphate buffer pH 7.2). The discs with enzyme adsorbed were transferred to new wells and 200 μL of phosphate buffer (10 mM pH 7.2), 30 μL of 3% triacetin (final concentration of 0.346%) and 30 μL of 30 mM H2O2 (final concentration of 3.46 mM) were added. The solution was allowed to incubate at room temperature for 5 min. 90 μL of solution was pipetted to a new well containing 10 μL of 100 mM H3PO4. 50 μL of acetic acid, 50 μL KI, 50 μL ABTS were added as described above. The solution was developed for 5 min at room temperature and read at A405 nm.

B1: EZ-3: C277S-link2-H6, SEQ ID NO: 426 (protein)
chain: MAFFDLPLEELKKYRPERYEEKDFDEFWEETLAESEKFPLDPVFERMESHLKTVEAYDVTFSGYRGQRIKGWLLVPKLEEEKLPCVVQYIGYNGGRGFPHDWLFWPSMGYICFVMDTRGQGSGWLKGDTPDYPEGPVDPQYPGFMTRGILDPRTYYYRRVFTDAVRAVEAAASFPQVDQERIVIAGGSQGGGIALAVSALSKKAKALLCDVPFLCHFRRAVQLVDTHPYAEITNFLKTHRDKEEIVFRTLSYFDGVNFAARAKIPALFSVGLMDNISPPSTVFAAYNYYAGPKEIRIYPYNNHEGGGSFQAVEQVKFLKKLFEKGGSHHHHHH
On to B1, for which, in experiment [1], the “Peracetic acid (ppm) In Solution” value is 5187 ppm. In experiment [2], the “Unbound (relative band strength)” value was 0.8, the “HAP Particles (relative band strength)” value was found to be 0.1, the “Wash1 (relative band strength)” value is 0.05 and the “Wash2 (relative band strength)” value came out at 0.05. Besides, in experiment [3], the “Avg Absorbance 405 nm Background subtracted” value is listed as 1.751. In experiment [4], the “Whiteness Index 0 min” value is listed as −159.0, the ΔWI is listed as 75.2, the “Whiteness Index 5 min” value was −147.4 and the “Whiteness Index 15 min” value is recorded as −161.5. Also, in experiment [4], the “Whiteness Index 30 min” value is recorded as −117.3, the “Whiteness Index 45 min” value is on record as −104.7 and the “Whiteness Index 60 min” value is listed as −83.8. Also, the “Peracetic acid (ppm) On Enamel” value in experiment [5] is 733 ppm.

B2: EZ-2: C277S-link1-HC263-H6 fusion protein, SEQ ID NO: 425 (protein)
chain: MAFFDLPLEELKKYRPERYEEKDFDEFWEETLAESEKFPLDPVFERMESHLKTVEAYDVTFSGYRGQRIKGWLLVPKLEEEKLPCVVQYIGYNGGRGFPHDWLFWPSMGYICFVMDTRGQGSGWLKGDTPDYPEGPVDPQYPGFMTRGILDPRTYYYRRVFTDAVRAVEAAASFPQVDQERIVIAGGSQGGGIALAVSALSKKAKALLCDVPFLCHFRRAVQLVDTHPYAEITNFLKTHRDKEEIVFRTLSYFDGVNFAARAKIPALFSVGLMDNISPPSTVFAAYNYYAGPKEIRIYPYNNHEGGGSFQAVEQVKFLKKLFEKGGPGSGGAGSPGSAGGPGSPSAQSQLPDKHSGLHERAPQRYGPEPEPEPEPIPEPPKEAPVVIEKPKPKPKPKPKPPAHDHKNQKETHQRHAAGSGGGGSPHHHHHH
For B2, the “Peracetic acid (ppm) In Solution” value in experiment [1] was 4761 ppm. Also, the “Peracetic acid (ppm)” value in experiment [6] stood at 3666.4 ppm. In addition, in experiment [2], the “Unbound (relative band strength)” value is recorded as 0.5, the “HAP Particles (relative band strength)” value is on record as 0.5, the “Wash1 (relative band strength)” value came to 0.0 and the “Wash2 (relative band strength)” value was 0.0. In addition, the “Avg Absorbance 405 nm Background subtracted” value in experiment [3] is reported as 1.577. For the same molecule, in experiment [4], the “Whiteness Index 0 min” value is given as −154.5, the ΔWI came out at 129.1, the “Whiteness Index 5 min” value is on record as −134.6 and the “Whiteness Index 15 min” value is reported as −97.3. In experiment [4], the “Whiteness Index 30 min” value is reported as −57.2, the “Whiteness Index 45 min” value is listed as −35.8 and the “Whiteness Index 60 min” value is given as −25.3. In experiment [5], the “Peracetic acid (ppm) On Enamel” value is 2549 ppm.

B3: EZ-5: C277S-link1-(GK)5-H6, SEQ ID NO: 428 (protein)
chain: MAFFDLPLEELKKYRPERYEEKDFDEFWEETLAESEKFPLDPVFERMESHLKTVEAYDVTFSGYRGQRIKGWLLVPKLEEEKLPCVVQYIGYNGGRGFPHDWLFWPSMGYICFVMDTRGQGSGWLKGDTPDYPEGPVDPQYPGFMTRGILDPRTYYYRRVFTDAVRAVEAAASFPQVDQERIVIAGGSQGGGIALAVSALSKKAKALLCDVPFLCHFRRAVQLVDTHPYAEITNFLKTHRDKEEIVFRTLSYFDGVNFAARAKIPALFSVGLMDNISPPSTVFAAYNYYAGPKEIRIYPYNNHEGGGSFQAVEQVKFLKKLFEKGGPGSGGAGSPGSAGGPGSGKGKGKGKGKHHHHHH
With B3, in experiment [1], the “Peracetic acid (ppm) In Solution” value worked out at 3956 ppm. In experiment [2], the “Unbound (relative band strength)” value is 0.2, the “HAP Particles (relative band strength)” value is on record as 0.7, the “Wash1 (relative band strength)” value was found to be 0.05 and the “Wash2 (relative band strength)” value was found to be 0.05. Further, the “Avg Absorbance 405 nm Background subtracted” value in experiment [3] turned out to be 1.658. In experiment [4], the “Whiteness Index 0 min” value is recorded as −135.8, the ΔWI is recorded as 93.2, the “Whiteness Index 5 min” value was −129.8 and the “Whiteness Index 15 min” value is −97.4. Moreover, in experiment [4], the “Whiteness Index 30 min” value was −65.1, the “Whiteness Index 45 min” value was −49.9 and the “Whiteness Index 60 min” value is listed as −42.7. Further, the “Peracetic acid (ppm) On Enamel” value in experiment [5] is 1344 ppm. For the same molecule, the “Avg Absorbance Background subtract” value in experiment [7] (background = no enzyme, no HAP (0.775)) is on record as 1.379. Also, in experiment [7] (discs incubated in 20 μM enzyme, 6 washes, 0.346% triacetin, 3.46 mM H2O2, A405), the “Avg Absorbance at 5 min” value was 2.154. Moreover, the “PAA conc μM per disc” value in experiment [7] (enzyme bound to hydroxyapatite disc, 5 min, no enzyme control 1.2) is reported as 49.7 μM per disc. Besides, the “activity when bound to hydroxyapatite (in words)” value in experiment [7] (with addition of triacetin and hydrogen peroxide) is on record as “active enzymes when bound to hydroxyapatite”.

The values above are taken from patent publication US8663616B2, “Enzymatic peracid generation for use in oral care products” (E I du Pont de Nemours and Company, priority 2010, dated 2014).
